Assay: yeast display, Sf9 membrane polyspecificity reagent, FACS + sequencing; frameworks hold sequencing errors
Summary of the method: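 Galactose-induced (36–48 hours) yeast carrying a synthetic nanobody display library were exposed to 10% biotinylated, detergent-solubilized Sf9 membrane reagent at 4 °C for 1 hour. FACS followed streptavidin microbead enrichment, using low and high (top ~1%) gates for expression (anti-HA) and reagent binding (streptavidin). Colony PCR, MiSeq 2 × 250 sequencing and CDR-length filtering followed. Labels for polyreactivity reflect the gate of origin.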

| Sequence | polyreactivity (PSR sort gate) |
| --- | --- |
| QVQLVESGGGLVQAGGSLRLSCAASGNTFRRYAMGWYRQAPGKERELVAAISYRGGSTYYADSVKGRFTISRDNAQNTVYLQMNSLKPEDTAVSYCNARFATSVLYDYWGQGTQVTVSS | high polyreactivity |
| QVQLVESGGGLVQAGGSLRLSCAASGSIFKVNTMGWHRQAPGTERELVAAISSSDDSTYYADSVKGRFTISRDNAKNTVYLQMNSLKPEDTAVYYCAADGSSVDSGGINDEYWGQGTQVTVSS | low polyreactivity |
| QVQLVESGGGLVQAGGSLRLSCAASGGNFGTNDMGWYRQAPGKERELVAAITSDSGSTYYADSVKGRFTISRDNAKNTVYLQMNSLKPEDTAVYYCAAEDGPWFYRYGYWGQGTQVTVSS | low polyreactivity |
| QVQLVESGGGLVQAGGSLSLSCAASGRIFAGYAMGWYRQAPGKERELVAVISSRGGRTYYADSVKGRFTISRDNAKNTVYLQMNSLKPEDTAVYYCNRVFSYQYKRDYWGQGTQVTVSS | high polyreactivity |
| QVQLVESGGGLVQAGGSLRLSCAASGRTFATYAMGWYRQAPGKERELVAAISSGGSTYYADSVKGRFTISRDNAKNTVYLQMNSLKPEDTAVYYCAVYVDYYGYGYWGQGTQVTVSS | high polyreactivity |
| QVQLVESGGGLVQAGGSLRLSCAASGRIFHFIAMGWYRQAPGKERELVATITKRGGRTYYADSVKGRFTISRDNAKNTVYLQMNSLKPEDTAVYYCNADQSRYSAVSGYDYWGQGTQVTVSS | high polyreactivity |
| QVQLVESGGGLVQAGGSLRLSCAAYGSIFYYNAMGWYRQAPGKERELVAAITKSGTRTNYADSVKGRFTLSRDNAKNTVYLQMNSLKPEDTAVYYCAAEDQYYRYLFAYEYWGQGTQVTVSS | high polyreactivity |
| QVQLVESGGGLVQAGGSLRLSCAPSGFIFTPYTMGGYRQAPGKERELVAAITDGSSTYYADSVKGRFTISRDNAKNTVYVQMNSLKPEDTAVYYCNADGKPPYISWLYDYWGQGTQVTVST | low polyreactivity |
| QVQLVESGGGLVQAGGSLRLSCAASGSIFAWYAMGWYRQAPGKERELVAVITRGGSTNYADSVKGRFTISRDNAKNTVYLQMNSLKPEDTAVYYCAAGSYYSWYPFDYWGQGTQVTVSS | low polyreactivity |
| QVQLVDSGGGKVQAGGSLRLSCAASGITFSRNAMGWYRQAPGKEMELVAAITWNGGRTYYADSVKGRFTISRDNAKNTVDLQMNSLKPEDTAVYYCAADSGTRNLASYRYYYWGQGTQGTVSS | high polyreactivity |
| QVQLVESGGGLVQAGCSLLLSCDATGNIFRYYFMGWYRQAPGKEREFVAAITTSCGSTYYADSVKGRFTISRDNAKNTVYLQMNSLKQEDTAVYYCAKDYWVPGWAEYDYWGQGTQVTVSS | low polyreactivity |
| QVQLVVSGGGLVQAGGSLRLICAASGFSFFFYALGWYSQAPGKDRELHATINWSGASTYYADSVMGRFTISRDNATNTVYLQMNSLKPEDTAVYYCAKDGHYPLVYLAFDYWGQGTQVTGSS | low polyreactivity |
| QVQLVESGGGLVQAGGSLRLSCAASGIIFQLNAMGWYRQAPGKERELVAAISSVGSTYYADSVKGRFTISRDNAKNTVYLQMNSLKPEDTAVYYCAAETYSTAHNAYFEIAYYWGQGTQVTVSS | high polyreactivity |
| QVQLVESGGGLVQAGGSLRLSCAASGRIFVENAMGWYRQAPRKERELVAAITSRGGSTYYADSVKGRFTISRDNAKNTVYLQMNSLKPEDTAVYYCNAGKYSRFLYDHNYWGQGTQVTVSS | high polyreactivity |
| QVQLVESVGGLVQAGGSLRLSCAASGYNFWSNTMGWYRQAPGKERELVAAISQSTASTYYADSVKGRFTISRDNAKNTVYLQMNSLKPEDTAVYYCAAYYNFGDYEYDYWGQGTQVTVSS | low polyreactivity |
| QVQLVESGVGLVQAGGSLRLSCAASGSIFGFYAMGWYRQAPGKERELVAAITSGDSTHYADSVKGRFTISRDNAKNTVYLQMNSLKPEDTAVYYCAASAPYRYYRSAYYYWGQGTQVTVSS | low polyreactivity |
| QVQLVESGGGLVQAGGSLRLSCAASGRIFRFYAMGWYRKAPGKERELVAAISSSGVRTYYADSVKGRFTISRDNAKNTVYLQMNSLKPEDTAVYYCAKRTVWWSNWHYYPPTYNYWGQGTQVTVSS | high polyreactivity |
| QVQLVESGGRLVQAGGSLRLSSAASGGTFYRNARGWYRQAPGKERELVASISRTGGSTYYADSVKGRFTISRDNAKNTVYLQMNSLKQVDTAVYYCAKKQPRYSYFDNDYWGQGTQVTVSS | high polyreactivity |
| QVQLVESGGGLVQAGGSLRLSCAASGSTIFLYDMGWYRQAPGKERELVAAITISGGSTYYADSVKGRFTISRDNAKNTVYLQMNSLKPEDTAVYDCNADYQWYLGGYDYWGQGTQVTVSS | high polyreactivity |
| QVQLVESGGVLVQAGGSLRLSCAASGRTFTPYTMGCDRPAPGKERELVAAISWSGGTTYYADSVMGRFTISRDNSKITVYLQMNSLKRVDTAVYYCAARVSRTCHGYYYFWGQGTQVTVSS | high polyreactivity |
| QVQLVESGGGLVQAGCSLRLSCAASGSIFSAYSMGWYRPAPGKEREFVAAITRRGGNTYYADSVKGRFTISRDNAKNTVYLQMKSLKPEDTAVYYCAASYNGLWHGDYDYWGQGTQVTVSS | low polyreactivity |
| QVQLVESWGGLVQAGGSLRLSCAASGGIFWNYAMGWYRQAPGKERELVATISSGGSTKYADSVKGRFTISRDNAKNTVYLQMNSLKPEDTAVYYCNKVFPNLYIYVVRGLIEMDYWGQGTQVTVSS | low polyreactivity |

Source: the nanobody polyreactivity screen of Harvey et al. (2022)
